Test results: patent US20200385445A1 (COMPUGEN, published 2020)

T1: human PVRIG (Poliovirus Receptor Related Immunoglobulin Domain Containing Protein), full length on cells (human, UniProt Q6DKI7 41-326)
T1 construct: whole, on cells; Over-expressed on HEK293 (some pools flag-tagged) or endogenous on Jurkat, CA46, T cells, NK cells, TILs; also called hPVRIG; HEK hPVRIG
T1 sequence (looked up): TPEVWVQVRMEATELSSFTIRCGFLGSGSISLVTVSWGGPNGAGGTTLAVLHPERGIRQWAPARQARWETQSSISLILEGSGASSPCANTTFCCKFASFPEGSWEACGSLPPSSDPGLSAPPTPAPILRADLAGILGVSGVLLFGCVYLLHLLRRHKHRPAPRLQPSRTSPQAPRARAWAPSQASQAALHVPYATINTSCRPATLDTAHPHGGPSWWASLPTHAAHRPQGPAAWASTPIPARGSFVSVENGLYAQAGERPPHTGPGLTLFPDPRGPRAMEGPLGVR


target: T1, human PVRIG (Poliovirus Receptor …); test: FACS dose titration on PVRIG over-expressing HEK293 cells
Description: FACS screening of the reformatted antibodies was done similarly to the PPE based screen described herein, except that a dose-dependent titration of the purified antibodies was performed. The human PVRIG over-expressing HEK293 cells, or the un-transfected HEK293 cells, were incubated with varying concentrations (0-10 μg/ml) of the anti PVRIG antibodies or isotype controls in FACS buffer at 4° C. for 60 mins. […] Cells were washed twice and re-suspended in a final volume of 80 μl of FACS buffer and Propidium Iodide (Biolegend cat #421301) diluted 1:1000. Samples were analyzed using an Intellicyt HTFC screening system (Intellicyt). Data was analyzed using FlowJo (DeNovo), exported to Excel (Microsoft) and plotted in GraphPad Prism (GraphPad Software, Inc.).
All unique ELISA and FACS binders were reformatted for expression as human IgG1 molecules in Expi293 cells. […] These reformatted antibodies were tested for retained binding to PVRIG over-expressing HEK293 cells alongside an irrelevant human IgG1 isotype control. All antibodies were also tested against un-transfected HEK293 cells.

Row | Binder | Kd [nM]
1 | CPA.7.010 human IgG1 (antibody, V domains shown) VH: EVQLVESGGGLVQPGRSLRLSCAASGFTFSSYAMHWVRQAPGKGLEWVAVISYDGSNKYYADSVKGRFTISRDNSKNTLYLQMNSLRAEDTAVYYCASSPIGYSYGYWGGMDVWGQGTTVTVSS VL: QAVLTQPASLSASPGASASLTCTLRSGIDVRTNKIFWYQVKPGSPPQHLLTFQSDSDKQQGSGVPSRFSGSKDASANAGILIISGLQSEDEADYYCLIWHTSGWVFGGGTQLTVLG | 21.9
2 | CPA.7.004 human IgG1 (antibody, V domains shown) VH: EVQLVQSGAEVKKPGASVKVSCKVSGYTLTELSMHWVRQAPGKGLEWMGGFDPEDGETIYAQKFQGRVTMTEDTSTDTAYMELSSLRSEDTAVYYCATVSRVRGVINYYYYMDVWGKGTTVTVSS VL: DVVMTQSPLSLPVTPGEPASISCRSSQSLLYRNGNNYLDWYLQKPGQSPQLLIYLGSNRASGVPDRFSGSGSGTDFTLKISRVEAEDVGVYYCMQALQTPPTFGGGTKLEIKR | 21.7
3 | CPA.7.011 human IgG1 (antibody, V domains shown) VH: EVQLVQSGAEVKKPGASVKVSCKVSGYTLTELSMHWVRQAPGKGLEWMGGFDPEDGETIYAQKFQGRVTMTEDTSTDTAYMELSSLRSEDTAVYYCATGPAAAGVGYYYYMDVWGKGTTVTVSS VL: DVVMTQSPLSLPVTPGEPASISCRSSQSLLYRNGYNYLDWYLQKPGQSPQLLIYLGSNRASGVPDRFSGSGSGTDFTLKISRVEAEDVGVYYCMQALQTPPTFGQGTKVEIKR | 66
4 | CPA.7.023 human IgG1 (antibody, V domains shown) VH: EVQLVQSGAEVKKPGASVKVSCKVSGYTLTELSMHWVRQAPGKGLEWMGGFDPEDGETIYAQKFQGRVTMTEDTSTDTAYMELSSLRSEDTAVYYCATDSRDGPAARGGYYYYMDVWGQGTTVTVSS VL: DVVMTQSPLSLPVTLGQPASISCRSSQSLLYINGYNYLDWYLQKPGQSPQLLIYLGSNRASGVPDRFSGSGSGTDFTLKISRVEAEDVGVYYCMQALQTPPTFGQGTKVEIKR | 4.08
5 | CPA.7.022 human IgG1 (antibody, V domains shown) VH: EVQLVQSGAEVKKPGASVKVSCKVSGYTLTELSMHWVRQAPGKGLEWMGGFDPEDGETIYAQKFQGRVTMTEDTSTDTAYMELSSLRSEDTAVYYCATGVPAAIGVYYYYYYMDVWGKGTTVTVSS VL: DVVMTQSPLSLPVTPGEPASISCRSSQSLLYSNGYNYLDWYLQKPGQSPQLLISLGSNRASGVPDRFSGSGSGTDFTLKISRVEAEDVGVYYCMQALQSPVTFGGGTKVEIKR | 4.17
6 | CPA.7.014 human IgG1 (antibody, V domains shown) VH: EVQLVQSGAEVKKPGASVKVSCKVSGYTLTELSMHWVRQAPGKGLEWMGGFDPEDGETIYAQKFQGRVTMTEDTSTDTAYMELSSLRSEDTAVYYCATGVTTYYYYGMDVWGQGTTVTVSS VL: DVVMTQSPLSLPVTPGEPASISCRSSQSLLYSNGNNFLDWYLQKPGQSPRLLISLGSNRASGVPDRFSGSGSGTDFTLKISRVEAEDVGIYYCMQALQTPPTFGQGTKVEIKR | 2.04
7 | CPA.7.009 human IgG1 (antibody, V domains shown) VH: EVQLVQSGAEVKKPGASVKVSCKVSGYTLTELSMHWVRQAPGKGLEWMGGFDPEDGETIYAQKFQGRVTMTEDTSTDTAYMELSSLRSEDTAVYYCATAKPGIAVAGQNYYYYYMDVWGKGTTVTVSS VL: DVVMTQSPLSLPVTPGEPASISCRSSQSLLYRNGNNYLDWYLQKPGQSPQLLIYLGSNRASGVPDRFSGSGSGTDFTLKISRVEAEDVGVYYCMQALQTPPTFGGGTKLEIKR | 33
8 | CPA.7.047 human IgG1 (antibody, V domains shown) VH: EVQLVQSGAEVKKPGASVKVSCKVSGYTLTELSMHWVRQAPGKGLEWMGGFDPEDGETIYAQKFQGRVTMTEDTSTDTAYMELSSLRSEDTAVYYCATAFPEATISYYYYMDVWGKGTTVTVSS VL: DVVMTQSPLSLPVTPGEPASISCRSSQSLLYRNGYNYLDWYLQKPGQSPQLLIYWGSYRASGVPDRFSGSGSGTDFTLKISRVEAEDVGVYYCMQAVQNPPTFGQGTKVEIKR | 5.36
9 | CPA.7.040 human IgG1 (antibody, V domains shown) VH: EVQLVQSGAEVKKPGASVKVSCKVSGYTLTELSMHWVRQAPGKGLEWMGGFDPEDGETIYAQKFQGRVTMTEDTSTDTAYMELSSLRSEDTAVYYCATGVPAAIGVYYYYYYMDVWGKGTTVTVSS VL: DVVMTQSPLSLPVTPGEPASISCRSSQSLLYRNGYNYLDWYLQKPGQSPQLLIYWGSYRASGVPDRFSGSGSGTDFTLKISRVEAEDVGVYYCMQAVQNPPTFGQGTKVDIKR | 0.79
10 | CPA.7.019 human IgG1 (antibody, V domains shown) VH: QVQLQESGPGLVKSSETLSLTCSVSGGSISNSNYYWGWIRQPPGKGLEWIGGIYYSGSTYYNPSLESRVTISEDTSKNQISLKLSSVTAADTAVYYCARGAWELSLGDWFDPWGPGTLVTVSS VL: QSVLTQPPSVSGAPGQRVTISCTGSSSNIGAGYDIQWYQQLPGTAPKLLIYGNNNRPSGVPDRFSGSRSGTSASLAITGLQAEDEADYYCQSYDSSLSVYVVFGGGTQLTVLG | 0.45
11 | CPA.7.015 human IgG1 (antibody, V domains shown) VH: QITLKESGGGVVQPGGSLRLSCAASGFTFSSYGMHWVRQAPGKGLEWVAFIRYDGSNKYYADSVKGRFTISRDNSKNTLYLQMNSLRAEDTAVYYCARDLFDFWWDGMDVWGQGTTVTVSS VL: EIVLTQSPGTLSLSPGEKATLSCRVSQSVSSMYLAWYQQKPGQAPRLLIYGASYRATGIPDRFSGSGSGTDFNLTISRLEPEDFAVYYCQQYVSSPMYTFGLGTKLEIKR | 1.34
12 | CPA.7.016 human IgG1 (antibody, V domains shown) VH: EVQLVQSGAEVKKPGSSVKVSCKTSGGTFSSSAISWVRQAPGQGFEWMGGIIPIYGITDYAQKFQGRVTITTDESTSTAYMELSSLTSEDTAVYYCARDDTARRVRGVPYYYYYAMDVWGQGTTVTVSS VL: EIVLTQSPGTLSLSPGERATLSCRASQSVSSYLAWYQQKPGQAPRLLIYDASNRATGIPARFSGSGSGTDFTLTISSLQSEDFAVYYCQQYDDWPQTFGQGTRLEIKR | 22
13 | CPA.7.017 human IgG1 (antibody, V domains shown) VH: QVQLVQSGAEVKKPGSSVKVSCKASGGTFNNYGISWVRQAPGKGLEWMGQIIPLFGTTKYAQKFQGRVTIAADEPTSTAYMELGSLRSEDTAIYYCARDRMAADGMAVFDYWGQGTLVTVSS VL: QSVLTQPPSVSGTPGQKVIISCSGSSSNIGRHFVFWYQQLPGTAPKLLIYKNDERPSGVPDRFSGSKSGTSASLAVSGLRSEDEADYYCSSWDAALNGVVFGGGTKLTVLG | 1.82
14 | CPA.7.012 human IgG1 (antibody, V domains shown) VH: EVQLVETGGGLIQPGRSLRLSCAASGFTFSSYAMHWVRQAPGKGLEWVAVISYDGSNKYYADSVKGRFTISRDNSKNTLYLQMNSLRAEDTAVYYCARDVMVYCSSTSCYFYGMDVWGQGTTVTVSS VL: DIQMTQSPSSLSASVGDRVTVTCQASQDIRDYLNWYQKKPGKAPKLLIYDASNLEAGVPSRFSGSGSGTDFTFTISGLQPEDVATYYCQQFENLPITFGQGTRLEIKR | 0.3
15 | CPA.7.018 human IgG1 (antibody, V domains shown) VH: EVQLVQSGAEVKKPGASVKVSCKVSGYTLTELSMHWVRQAPGKGLEWMGGFDPEDGETIYAQKFQGRVTMTEDTSTDTAYMELSSLRSEDTAVYYCATEVPMVRGARRYYYYMDVWGKGTTVTVSS VL: DVVMTQSPLFLAVTPGEPASISCRSSQTLLYINENNYLDWYVQKPGQSPQLLIYLGSTRASGVPDRFSGGGSGTDFTLTISRVEAEDVGLYYCMQGLQTPPTFGQGTRLEIKR | 9.29
